According to article PMC11067744:

Target: YenB (UniProt B6A880)
Experiment: SEC-MALS

Chain of UniProt B6A880 (B6A880 whole entry): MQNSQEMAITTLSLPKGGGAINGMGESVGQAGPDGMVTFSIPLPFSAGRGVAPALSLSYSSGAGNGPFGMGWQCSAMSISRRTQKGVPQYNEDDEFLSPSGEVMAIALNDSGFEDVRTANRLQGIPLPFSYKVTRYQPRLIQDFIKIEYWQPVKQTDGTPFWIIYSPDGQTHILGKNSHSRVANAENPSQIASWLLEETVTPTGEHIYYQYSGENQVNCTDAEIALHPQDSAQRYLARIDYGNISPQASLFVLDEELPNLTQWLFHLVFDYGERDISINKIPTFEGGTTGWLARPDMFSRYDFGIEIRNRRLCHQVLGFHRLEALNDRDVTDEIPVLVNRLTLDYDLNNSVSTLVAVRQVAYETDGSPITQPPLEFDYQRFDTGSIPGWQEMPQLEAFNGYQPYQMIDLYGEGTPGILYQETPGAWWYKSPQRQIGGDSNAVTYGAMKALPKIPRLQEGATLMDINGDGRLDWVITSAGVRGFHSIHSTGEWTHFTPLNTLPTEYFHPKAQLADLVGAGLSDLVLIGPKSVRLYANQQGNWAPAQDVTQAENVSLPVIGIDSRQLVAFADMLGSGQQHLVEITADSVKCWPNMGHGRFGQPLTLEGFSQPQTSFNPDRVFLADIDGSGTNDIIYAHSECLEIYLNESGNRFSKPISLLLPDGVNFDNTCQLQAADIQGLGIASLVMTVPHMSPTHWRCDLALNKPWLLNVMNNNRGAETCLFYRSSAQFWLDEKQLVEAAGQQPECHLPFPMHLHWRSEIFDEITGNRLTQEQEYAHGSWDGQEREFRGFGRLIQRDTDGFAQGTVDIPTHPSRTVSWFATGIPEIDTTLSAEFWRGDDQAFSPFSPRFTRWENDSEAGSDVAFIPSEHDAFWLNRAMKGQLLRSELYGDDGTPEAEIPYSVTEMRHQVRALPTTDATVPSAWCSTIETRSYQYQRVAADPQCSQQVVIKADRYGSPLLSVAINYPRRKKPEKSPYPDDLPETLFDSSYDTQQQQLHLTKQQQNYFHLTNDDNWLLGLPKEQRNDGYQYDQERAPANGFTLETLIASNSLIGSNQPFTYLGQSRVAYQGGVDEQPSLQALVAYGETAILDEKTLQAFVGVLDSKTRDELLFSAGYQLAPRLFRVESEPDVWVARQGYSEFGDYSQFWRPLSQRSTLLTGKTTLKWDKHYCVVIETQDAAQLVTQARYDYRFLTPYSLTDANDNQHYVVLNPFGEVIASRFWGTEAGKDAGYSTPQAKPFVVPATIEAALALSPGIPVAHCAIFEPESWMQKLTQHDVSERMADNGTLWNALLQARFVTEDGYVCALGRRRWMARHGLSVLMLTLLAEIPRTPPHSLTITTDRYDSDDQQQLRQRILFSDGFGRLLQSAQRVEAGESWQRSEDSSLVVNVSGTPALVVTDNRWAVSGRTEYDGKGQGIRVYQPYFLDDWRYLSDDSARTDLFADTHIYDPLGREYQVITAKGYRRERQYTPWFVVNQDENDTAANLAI

YenC3^NTD (domain or fragment)
stoichiometry N: 1

YenC3^CTD (domain or fragment)
stoichiometry N: 1
